Measurements: publication PMC7450108, “Pterocarpan synthase (PTS) structures suggest a common quinone methide–stabilizing function in dirigent proteins and proteins with dirigent-like domains” (The Journal of Biological Chemistry, 2020)

Columns and labels:
[1] = system: COc1ccc([C@@H]2COc3cc(O)ccc3[C@@H]2O)c(O)c1; experiment: medicarpin formation, chiral HPLC (RU-2); assay type: biochemical, Glycyrrhiza echinata; details: 0.1 M sodium phosphate pH 6.6, 30 °C, 5 min, BSA, racemic cis-DMI supplied
From the text: (§1) medicarpin formation, chiral HPLC (RU-2) on GePTS1

[2] = system: COc1ccc([C@H]2COc3cc(O)ccc3[C@@H]2O)c(O)c1; experiment: medicarpin formation, chiral HPLC (RU-2); assay type: biochemical, Glycyrrhiza echinata; details: 0.1 M sodium phosphate pH 6.6, 30 °C, 5 min, BSA, racemic trans-DMI supplied
From the text: as §1

[3] = system: COc1ccc([C@@H]2COc3cc(O)ccc3[C@@H]2O)c(O)c1; experiment: purified protein; details: 0.1 M sodium phosphate pH 6.6, 30 °C, 5 min, BSA, racemic cis-DMI supplied, kinetics calculated on (3R,4R) conversion
[4] = system: COc1ccc([C@H]2COc3cc(O)ccc3[C@@H]2O)c(O)c1; experiment: purified protein; details: 0.1 M sodium phosphate pH 6.6, 30 °C, 5 min, BSA, racemic trans-DMI supplied, kinetics calculated on (3S,4R) conversion
[5] = (3R,4R) converted, pET100 construct
[6] = (3S,4R) converted, pET100 construct
[7] = kinetics calculated on (3R,4R) conversion
[8] = kinetics calculated on (3S,4R) conversion

Substance	Km [1, 5]	kcat [1, 5]	kcat/Km [1, 5]	Km [2, 6]	kcat [2, 6]	kcat/Km [2, 6]	other results
GePTS1 (Glycyrrhiza echinata; D83A)	1,300 μM	6.3 s⁻¹	4870 M⁻¹ s⁻¹	665 µM	1.3 s⁻¹	1960 M⁻¹ s⁻¹	
GePTS1 (Glycyrrhiza echinata)							Km [1, 7]: 145 µM; kcat [1, 7]: 59.9 s⁻¹; kcat/Km [1, 7]: 413000 M⁻¹ s⁻¹; Km [2, 8]: 680 µM; kcat [2, 8]: 15.9 s⁻¹; kcat/Km [2, 8]: 23400 M⁻¹ s⁻¹
GePTS1 (Glycyrrhiza echinata; Y103F)	555 µM	6.9 s⁻¹	12300 M⁻¹ s⁻¹	3,320 μM	5.9 s⁻¹	1830 M⁻¹ s⁻¹	
GePTS1 (Glycyrrhiza echinata; Y181F)	825 µM	5.2 s⁻¹	6310 M⁻¹ s⁻¹	5,665 μM	4 s⁻¹	710 M⁻¹ s⁻¹	
GePTS1 (Glycyrrhiza echinata; D50A)	1,175 μM	4.9 s⁻¹	4180 M⁻¹ s⁻¹	520 µM	0.2 s⁻¹	370 M⁻¹ s⁻¹	
PsPTS1 (Lathyrus oleraceus)							Km [3]: 890 µM; kcat [3]: 50.5 s⁻¹; kcat/Km [3]: 56800 M⁻¹ s⁻¹; Km [4]: 830 µM; kcat [4]: 3.3 s⁻¹; kcat/Km [4]: 3930 M⁻¹ s⁻¹
